T1: high affinity trimeric IL-2R (IL-2Rα, IL-2Rβ and IL-2Rγ) on HEK-Blue IL-2 cells (UniProt P01589 22-272; P14784 27-551; P31785 23-369)
T1 sequence (looked up) 1: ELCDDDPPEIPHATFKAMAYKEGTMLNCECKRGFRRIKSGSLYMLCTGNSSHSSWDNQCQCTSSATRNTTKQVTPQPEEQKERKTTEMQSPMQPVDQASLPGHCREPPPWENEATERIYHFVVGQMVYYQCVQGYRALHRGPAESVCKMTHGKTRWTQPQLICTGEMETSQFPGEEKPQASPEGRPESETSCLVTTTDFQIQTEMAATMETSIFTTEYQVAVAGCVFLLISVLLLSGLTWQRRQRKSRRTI
T1 sequence (looked up) 2: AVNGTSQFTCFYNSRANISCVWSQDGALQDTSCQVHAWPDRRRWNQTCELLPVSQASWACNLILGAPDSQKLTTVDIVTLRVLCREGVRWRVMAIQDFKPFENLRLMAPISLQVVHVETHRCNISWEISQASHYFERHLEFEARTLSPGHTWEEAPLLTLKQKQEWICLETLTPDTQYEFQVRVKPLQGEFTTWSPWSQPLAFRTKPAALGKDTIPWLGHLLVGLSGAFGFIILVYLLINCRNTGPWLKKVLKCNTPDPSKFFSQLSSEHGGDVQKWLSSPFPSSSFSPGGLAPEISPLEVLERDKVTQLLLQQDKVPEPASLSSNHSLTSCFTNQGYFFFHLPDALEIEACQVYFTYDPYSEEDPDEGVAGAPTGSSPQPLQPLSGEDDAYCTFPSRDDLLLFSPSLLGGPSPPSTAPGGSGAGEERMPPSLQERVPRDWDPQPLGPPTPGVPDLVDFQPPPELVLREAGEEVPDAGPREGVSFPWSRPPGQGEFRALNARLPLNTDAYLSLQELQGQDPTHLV
T1 sequence (looked up) 3: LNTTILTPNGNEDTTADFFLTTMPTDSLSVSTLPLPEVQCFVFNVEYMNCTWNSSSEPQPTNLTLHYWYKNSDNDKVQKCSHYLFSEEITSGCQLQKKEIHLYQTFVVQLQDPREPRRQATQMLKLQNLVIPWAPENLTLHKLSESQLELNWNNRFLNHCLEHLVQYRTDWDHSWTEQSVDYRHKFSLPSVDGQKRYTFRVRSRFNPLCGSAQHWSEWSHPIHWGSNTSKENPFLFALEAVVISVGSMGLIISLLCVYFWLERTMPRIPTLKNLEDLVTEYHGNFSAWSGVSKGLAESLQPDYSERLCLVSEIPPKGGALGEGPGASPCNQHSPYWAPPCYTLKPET

T2: low-moderate affinity dimeric IL-2R (IL-2Rβ and IL-2Rγ) on HEK-Blue CD122/CD132 cells (UniProt P14784 27-551; P31785 23-369, limits assumed)
T2 sequence (looked up) 1: T1 sequence (looked up) 2
T2 sequence (looked up) 2: T1 sequence (looked up) 3

B1: pNOVI V2K K91_IL-2Rα CM1_VKCK_IL-2_CM1_VHCH (antibody, human IgG1, kappa)
light: ELCDDDPPEIPHATFKAMAYKEGTMLNCECKRGFRRIKSGSLYMLCTGNSSHSSWDNQCQCTSSATRNTTKQVTPQPEEQKERKTTEMQSPMQPVDQASLPGHCREPPPWENEATERIYHFVVGQMVYYQCVQGYRALHRGPAESVCKMTHGKTRWTQPQLICTGEMETSQFPGEEKPQASPEGRPESETSCLVTTTDFQIQTEMAATMETSIFTTEGGGGSVHMPLGFLGPGGSDIQMTQSPSSLSASVGDRVTITCNVDQVIANWLNWYQQKPGKAPKLLIYAASSLQSGVPSRFSGSGSGTDFTLTISSLQPEDFATYYCQQMHPRAPKQFGQGTKVEIKRTVAAPSVFIFPPSDEQLKSGTASVVCLLNNFYPREAKVQWKVDNALQSGNSQESVTEQDSKDSTYSLSSTLTLSKADYEKHKVYACEVTHQGLSSPVTKSFNRGEC
heavy: not shown
notes: masked K91 fusion, uncleaved; also called n690; construct No 690
B2: pNOVI V2K K91 (antibody, human IgG1, kappa)
light: DIQMTQSPSSLSASVGDRVTITCNVDQVIANWLNWYQQKPGKAPKLLIYAASSLQSGVPSRFSGSGSGTDFTLTISSLQPEDFATYYCQQMHPRAPKQFGQGTKVEIKRTVAAPSVFIFPPSDEQLKSGTASVVCLLNNFYPREAKVQWKVDNALQSGNSQESVTEQDSKDSTYSLSSTLTLSKADYEKHKVYACEVTHQGLSSPVTKSFNRGEC
heavy: not shown
notes: also called n46; construct No 46
B3: Construct No 830 after cleavage by MMP-9 (antibody)
light: DIQMTQSPSSLSASVGDRVTITCRASQSISSYLNWYQQKPGKAPKLLIYAASSLQSGVPSRFSGSGSGTDFTLTISSLQPEDFATYYCQQFHKRSPQKFGQGTKVEIKRTVAAPSVFIFPPSDEQLKSGTASVVCLLNNFYPREAKVQWKVDNALQSGNSQESVTEQDSKDSTYSLSSTLTLSKADYEKHKVYACEVTHQGLSSPVTKSFNRGEC
heavy: not shown
notes: MMP-9 digest of m27 (K33); the sample also holds the released IL-2Rα, IL-2 and IL-2Rβ; also called n830 after cleavage; not shown: remnant of CM1 and linker after MMP-9 cleavage
B4: pNOVI V2K K33 (antibody, human IgG1, kappa)
light: B3 light
heavy: not shown
notes: also called n22; construct No 22
B5: Construct No 770 after cleavage by MMP-9 (antibody)
light: B2 light
heavy: not shown
notes: MMP-9 digest of m28; the sample also holds the released IL-2Rα, IL-2 C125S and IL-2Rβ; also called n770 after cleavage; not shown: remnant of CM1 and linker after MMP-9 cleavage
B6: Construct No 780 after cleavage by MMP-9 (antibody)
light: B2 light
heavy: not shown
notes: MMP-9 digest of m29; the sample also holds the released IL-2Rα, IL-2 F42A and IL-2Rβ; also called n780 after cleavage; not shown: remnant of CM1 and linker after MMP-9 cleavage
B7: Construct No 790 after cleavage by MMP-9 (antibody)
light: B2 light
heavy: not shown
notes: MMP-9 digest of m30; the sample also holds the released IL-2Rα, IL-2 D20T and IL-2Rβ; also called n790 after cleavage; not shown: remnant of CM1 and linker after MMP-9 cleavage
B8: Construct No 800 after cleavage by MMP-9 (antibody)
light: B2 light
heavy: not shown
notes: MMP-9 digest of m31; the sample also holds the released IL-2Rα, IL-2 Q126T and IL-2Rβ; also called n800 after cleavage; not shown: remnant of CM1 and linker after MMP-9 cleavage
B9: Construct No 870 after cleavage by MMP-9 (antibody)
light: B2 light
heavy: not shown
notes: MMP-9 digest of m33; the sample also holds the released IL-2Rγ, IL-2 and IL-2Rα; also called n870 after cleavage; not shown: remnant of CM1 and linker after MMP-9 cleavage
B10: Construct No 880 after cleavage by MMP-9 (antibody)
light: B2 light
heavy: not shown
notes: MMP-9 digest of m34; the sample also holds the released IL-2Rγ-(GGGGS)2-IL-2 fusion (no cleavable linker between the two) and IL-2Rα; also called n880 after cleavage; not shown: remnant of CM1 and linker after MMP-9 cleavage
B11: Construct No 651 after cleavage by MMP-9 (antibody)
light: B2 light
heavy: not shown
notes: MMP-9 digest of m22; the sample also holds the released IL-2Rα, IL-2 and IL-2Rβ; also called n651 after cleavage; not shown: remnant of CM1 and linker after MMP-9 cleavage
B12: Construct No 676 after cleavage by MMP-9 (antibody)
light: B2 light
heavy: not shown
notes: MMP-9 digest of m23; the sample also holds the released IL-2Rα-(GGGGS)2-IL-2 fusion (no cleavable linker between the two) and IL-2Rβ; also called n676 after cleavage; not shown: remnant of CM1 and linker after MMP-9 cleavage
B13: Construct No 41 after cleavage by MMP-9 (antibody)
light: B2 light
heavy: not shown
notes: MMP-9 digest of m8; the sample also holds the released IL-2 and IL-2Rα; also called n41 after cleavage; not shown: remnant of CM1 and linker after MMP-9 cleavage
B14: pNOVI V2K K91_IL-2 CM1_CM2_VHCH (antibody, human IgG1, kappa)
light: B2 light
heavy: not shown
notes: masked K91 fusion, uncleaved; also called n17; construct No 17
B15: pNOVI V2K K91_IL15_CM1_VHCH (antibody)
light: B2 light
heavy: not shown
notes: masked K91 fusion, uncleaved; 49% aggregates; also called n111; construct No 111
B16: pNOVI V2K K91_IL-2 CM1_VHCH (antibody, human IgG1, kappa)
light: B2 light
heavy: not shown
notes: masked K91 fusion, uncleaved; also called n13; construct No 13

What was measured:
[1] = molecular target: T1, high affinity trimeric IL-2R (IL-2Rα, …); assay: cell-based or functional assay
His-tagged human CD47 [2] = molecular target: T3, His-tagged human CD47 (human, UniProt Q08722 19-139, limits assumed); assay: BLI, His-CD47 on HIS1K sensor, antibody 15 µg/mL
T3 construct: loaded on HIS1K biosensors at 2.5 µg/mL; also called target antigen; not shown: His tag
Method: (§1) The capacity of the masking domains to inhibit binding activity of the antibody was evaluated by Bio-Layer Interferometry (BLI). […] Binding experiments were performed to evaluate the masking efficiency and the binding recovery after cleavage of the masking domains. BLI was performed on an Octet RED96 system (Sartorius). His-tagged human CD47 was diluted at 2.5 μg/mL in Kinetic Buffer (KB) (Sartorius) and loaded on HIS1K biosensors (anti-His tag antibody biosensors, Sartorius) for 300 seconds. Loaded biosensors were dipped into antibodies diluted at 15 μg/mL in KB for 300 seconds to monitor association. Then, biosensors were transferred in KB for dissociation for 60 seconds. Binding profiles were then analyzed with ForteBio Data Analysis software.

[3] = molecular target: T4, CD47 at the surface of Peak cells (human, UniProt Q08722 19-323); assay: flow cytometry, Peak cells; EC50 before / EC50 after cleavage
T4 construct: whole, on cells; also called cell surface CD47
Method: (§2) Binding activity of antibody-cytokine/receptor fusions before and after cleavage was also evaluated by flow cytometry. Peak cells derived from HEK 293 which are human cells expressing CD47 were used to evaluate masking efficacy and binding recovery to CD47 by flow cytometry. Peak cells were diluted in cold FACS buffer (PBS, 2% BSA) to 1.2×10⁶ cells/mL. 3×10⁵ cells/well were added in a 96 well V-bottom plate. The plate was then centrifugated for 5 min at 1300 rpm, 4° C. Supernatants were removed and cells were washed twice using FACS buffer. A serial dilution of antibody-cytokine/receptor fusions previously digested with MMP-9 or not digested as described above was prepared in FACS buffer. An irrelevant antibody was included. Then, 150 μL of each diluted antibody were added in corresponding well and incubated for 30 min at 4° C. Cells were washed twice with FACS buffer and 100 μL of a mouse anti human Fc-PE conjugated secondary antibody were added and the plate was incubated for 20 min at 4° C. Cells were then washed twice with FACS buffer. Finally, 150 μL of SYTOX blue dead cell stain (ThermoFisher) diluted to 1/5000 in FACS buffer were added before detection by flow cytometry with Cytoflex (Beckman Coulter). Acquisition was performed with 10000 events for each well. Data were analyzed by FlowJo software.

[4] = molecular target: T4, CD47 at the surface of Peak cells; assay: flow cytometry, Peak cells, before cleavage
Method: as §2

[5] = molecular target: T2, low-moderate affinity dimeric IL-2R …; assay: cell-based or functional assay
[6] = molecular target: T4, CD47 at the surface of Peak cells; assay: flow cytometry, Peak cells
Method: as §2

His-tagged human CD47 [7] = molecular target: T3, His-tagged human CD47; assay: BLI, His-CD47 on HIS1K sensor, after MMP-9 treatment
Method: as §1

[8] = molecular target: T4, CD47 at the surface of Peak cells; assay: flow cytometry, Peak cells, after MMP-9 treatment
Method: as §2

Row | Binder | Binding before cleavage (BLI) (His-tagged human CD47 [2]) [nm] | EC50 after cleavage IL-2, HEK Blue IL-2 αβγ reporter assay [1] [pM] | Binding after cleavage (BLI) (His-tagged human CD47 [7]) [nm] | EC50 after cleavage IL-2, HEK Blue IL-2 βγ reporter assay [5] [pM] | EC50 [8] [pM] | further results
1 | B1 | 1.2 | – | – | – | – | EC50 before cleavage IL-2, HEK Blue IL-2 αβγ reporter assay [1]: 70 pM; EC50 ratio (BC/AC), HEK Blue IL-2 αβγ reporter assay [1]: 1; Binding recovery (BC/AC) [3]: 20; EC50 [4]: 8700 pM; EC50 before cleavage IL-2, HEK Blue IL-2 βγ reporter assay [5]: 120 pM; EC50 ratio (BC/AC), HEK Blue IL-2 βγ reporter assay [5]: 4
2 | B2 | 1.8 | – | – | – | – | EC50 [6]: 62 pM
3 | B3 | – | 10 | 1.7 | 10 | – | –
4 | B4 | 1.3 | – | – | – | – | –
5 | B5 | – | 20 | 1.7 | 10 | 500 | –
6 | B6 | – | 20 | 1.7 | 10 | 1000 | –
7 | B7 | – | 40 | 1.4 | 70 | 1600 | –
8 | B8 | – | 480 | 1.5 | 1140 | 1500 | –
9 | B9 | – | 10 | 1.3 | 30 | 1300 | –
10 | B10 | – | 40 | 1.1 | 20 | 2600 | –
11 | B11 | – | 20 | 1.6 | 10 | 700 | –
12 | B12 | – | 40 | 1.5 | 30 | 1000 | –
13 | B13 | – | 20 | 1.7 | 10 | 200 | –
14 | B14 | 2.2 | – | – | – | – | –
15 | B15 | 1.5 | – | – | – | – | –
16 | B16 | 2.3 | – | – | – | – | –
